Source: paper PMC12198324

Experiments:
[1] = biological target: rat µ opioid receptor (HA-µOR), stably expressed in HEK293 cells (rat) (UniProt P33535)
[2] = biological target: rat µ opioid receptor (HA-µOR), stably expressed in HEK293 cells (rat) (UniProt P33535); assay: radioligand binding; competition with 5 nM [3H]-naloxone as tracer; 20 µg total membranes of HEK293-µOR cells in DMEM, 37 °C, 1 h, filtration over GF/C filters; Ki

Chain of UniProt P33535 (P33535 whole entry): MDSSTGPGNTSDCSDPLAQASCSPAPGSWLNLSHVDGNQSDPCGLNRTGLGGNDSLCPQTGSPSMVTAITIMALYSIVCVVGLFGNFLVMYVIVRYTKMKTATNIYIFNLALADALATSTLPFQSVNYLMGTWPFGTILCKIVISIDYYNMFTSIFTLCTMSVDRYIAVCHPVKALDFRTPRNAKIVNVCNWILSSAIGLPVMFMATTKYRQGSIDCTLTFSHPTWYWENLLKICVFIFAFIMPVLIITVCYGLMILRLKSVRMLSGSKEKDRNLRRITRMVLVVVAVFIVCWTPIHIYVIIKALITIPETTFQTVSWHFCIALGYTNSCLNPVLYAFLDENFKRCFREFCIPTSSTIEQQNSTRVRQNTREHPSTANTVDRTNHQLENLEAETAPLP

ERK-1/2 phosphorylation after 2.5 min in HEK293-µOR cells (western blot), EC50 [1]: 5.8 nM
inhibition of FSK (10 µM) induced cAMP accumulation in HEK293-µOR cells, EC50 [1]: 4.17 nM
Ki [2]: 39.7 nM
Substance: endomorphin-1 (peptide)
